Results reported in patent publication US20030124132A1 (University of Texas, published 2003).

Columns and labels:
[1] = tested on: cancer patients having progressive disease; settings: progressive disease before treatment; cited from earlier work
TNFα = settings: cited from earlier work
bEnd.3 endothelial cells [2] = assay: PS surface expression on endothelial cells exposed to H2O2 (anti-PS IgM staining); type: cell-based, mouse
Protocol: (§1) Mouse bEnd.3 endothelial cells were seeded at an initial density of 50,000 cells/well. Twenty-fours later cells were incubated with increasing concentrations of H2O2 (from 10 μM to 500 μM) for 1 hour at 37° C. or left untreated. At the end of the incubation, cells were washed 3 times with PBS containing 0.2% gelatin and fixed with 0.25% glutaraldehyde. Identical wells were either stained with anti-PS IgM or trypsinized and evaluated for viability by the Trypan Blue exclusion test. For the anti-PS staining, after blocking with 2% gelatin for 10 min., cells were incubated with 2 μg/ml of anti-PS antibody, followed by detection with anti-mouse IgM-HRP conjugate.

bEnd.3 endothelial cells [3] = assay: Viability of endothelial cells exposed to H2O2 (Trypan Blue exclusion); type: cell-based, mouse
Protocol: as §1

[4] = tested on: human umbilical vein endothelial cells (HUVEC); settings: cited from earlier work
[5] = target: I-A^d MHC Class II antigen (mouse) (UniProt P04228); assay: FACS
[6] = target: I-A^d MHC Class II antigen (mouse) (UniProt P04228); assay: cell-based or functional assay
[7] = tested on: tissue factor on HUVEC cells; assay: FACS analysis of tissue factor expression on endothelial cells; type: cell-based, human; settings: TNFα 500 U/ml, LPS 10 μg/ml, VEGF 1 nM, alone or in combination, 6 h
Protocol: To analyze tissue factor expression on the surface of endothelial cells, HUVEC cells were incubated with TNFα (500 U/ml), LPS (10 μg/ml) or vascular endothelial growth factor (VEGF, 1 nM) alone or in combination for 6 h at 37°. Cells were then detached and stained for surface expression of human tissue factor with a sheep-anti-human tissue factor antibody (Haemochrom, Essen, Germany) and an appropriate FITC-conjugated secondary antibody. Fluorescent cells were detected on a flow cytometer (Becton Dickinson, San Jose, Calif.).

[8] = target: T1, tissue factor on the surface of stimulated 2F2B mouse endothelial cells (mouse, UniProt P20352 29-294); assay: FACS on 2F2B mouse endothelial cells stimulated with LPS or TNF alpha, detection with sheep anti-human TF antibody; also a cell bound coagulation assay
T1 construct: whole, on cells; also called cell-surface tissue factor; endogenous TF
T1 sequence (looked up): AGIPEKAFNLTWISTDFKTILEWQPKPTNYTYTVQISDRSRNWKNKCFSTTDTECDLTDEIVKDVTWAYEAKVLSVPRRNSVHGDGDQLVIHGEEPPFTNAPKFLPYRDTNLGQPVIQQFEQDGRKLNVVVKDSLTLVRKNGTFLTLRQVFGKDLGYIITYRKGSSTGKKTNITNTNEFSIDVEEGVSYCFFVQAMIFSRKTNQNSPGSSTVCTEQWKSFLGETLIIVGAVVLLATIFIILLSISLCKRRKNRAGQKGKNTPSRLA

[9] = tested on: IL-1α-stimulated bEnd.3 cells; assay: Chromogenic assay of Factor Xa formation by cell-bound coaguligand, with Annexin V; type: cell-based, mouse; settings: Annexin V 10 μg per ml
Protocol: The ability of Annexin V to affect Factor Xa formation induced by coaguligand was determined by a chromogenic assay. […] Annexin V was added at concentrations ranging from 0.1 to 10 μg/ml and cells were incubated for 30 min. before addition of diluted Proplex T. The amount of Factor Xa generated in the presence or absence of Annexin V was determined. Each treatment was performed in duplicate and repeated at least twice.

[10] = tested on: L540 Hodgkin tumor blood vessels; assay: Annexin V inhibition of coaguligand-induced thrombosis in vivo; set-up: species or system SCID mice; settings: 100 μg Annexin V alone or 2 hours before 40 μg coaguligand
Protocol: The ability of Annexin V to inhibit coaguligand-induced thrombosis in vivo was examined in L540 Hodgkin-bearing SCID mice.
Four hours after the last injection mice were anesthetized and perfused with heparinized saline. Tumors were removed, fixed with 4% formalin, paraffin-embedded and stained with hematoxylene-eosin. The number of thrombosed and non-thrombosed blood vessels were counted and the percentage of thrombosis was calculated.
Groups of tumor-bearing mice were treated with one of the control or test reagents. […] Identical results were obtained in both mice per group.

[11] = tested on: A20 lymphoma cells (I-A^d positive), mouse or human plasma; assay: In vitro coagulation assay on A20 cells with capture bispecific antibody B21-2/10H10; type: cell-based; settings: for concentration at which plasma coagulated in 50 seconds: bound via B21-2/10H10 to A20 cells, separate studies per block; for coagulation inducing activity lower than reference: versus monomer / unconjugated form or tTF219
[12] = tested on: Factor X to Xa conversion on A20 cells; assay: Factor Xa production assay on A20 cells; type: cell-based, mouse; settings: Factors II, VII, IX and X present

## NC(=O)c1nnn(Cc2cc(Cl)c(C(=O)c3ccc(Cl)cc3)c(Cl)c2)c1N [CAI, carboxyamidotriazole]
[1]
  cancer patients with disease stabilization: 49%

## Cc1ccc2c(=O)c3cccc(CC(=O)O)c3oc2c1C [DMXAA]
TNFα
  less effective than endotoxin in inducing TNFα: 20 fold

## OO [H2O2]
bEnd.3 endothelial cells [2]; H2O2 as low as 20 μM (lower than 100 μM)
  cells with PS at the cell surface: about 50%
bEnd.3 endothelial cells [2]; H2O2 higher than 100 μM, 1 hour
  cells with PS translocation: ~90%
bEnd.3 endothelial cells [3]; H2O2 higher than 100 μM
  cell viability: 50-60%
bEnd.3 endothelial cells [3]; low levels of H2O2, identical to untreated cells
  cell viability: 95%
[4]; 15 μM H2O2
  viability: 90 to 95%
[4]; 1500 μM H2O2
  viable cells: 0%-50%

## B21-2 anti-I-A^d antibody
[5]
  fold higher affinity than M5/114.15.2: 5 to 10 fold

## B21-2/10H10 bispecific antibody
[6]
  time for fibrin strands to form after adding mouse plasma to A20 cells: 36 s

## VEGF
[7]
  tissue factor expression on the surface of HUVEC: upregulated tissue factor expression

B1: recombinant, depyrogenated truncated Tissue Factor (amino acids 1-219) of Example X (other, human, UniProt P13726 33-251, looked up)
chain: SGTTNTVAAYNLTWKSTNFKTILEWEPKPVNQVYTVQISTKSGDWKSKCFYTTDTECDLTDEIVKDVKQTYLARVFSYPAGNVESTGSAGEPLYENSPEFTPYLETNLGQPTIQSFEQVGTKVNVTVEDERTLVRRNNTFLSLRDVFGKDLIYTLYYWKSSSSGKKTAKTNTNEFLIDVDKGENYCFSVQAVIPSRTVNRKSTDSPVECMGQEKGEFRE
notes: also called tTF; endotoxin-free tTF
[8]
  binding result: no binding

B2: Annexin V: binds to PS with high affinity (protein, UniProt P08758 2-320, looked up)
Annexin A5: AQVLRGTVTDFPGFDERADAETLRKAMKGLGTDEESILTLLTSRSNAQRQEISAAFKTLFGRDLLDDLKSELTGKFEKLIVALMKPSRLYDAYELKHALKGAGTNEKVLTEIIASRTPEELRAIKQVYEEEYGSSLEDDVVGDTSGYYQRMLVVLLQANRDPDAGIDEAQVEQDAQALFQAGELKWGTDEEKFITIFGTRSVSHLRKVFDKYMTISGFQIEETIDRETSGNLEQLLLAVVKSIRSIPAYLAETLYYAMKGAGTDDHTLIRVMVSRSEIDLFNIRKEFRKNFATSLYSMIKGDTSGDYKKALLLLCGEDD
[9]
  inhibition of factor Xa production: 58%
[10]
  effect on tumor thrombosis / morphology: did not alter tumor morphology

B3: H6-tTF219-cys-C′: tTF with (His)6 and a Cys after amino acid 219 (protein)
chain: HHHHHHAMALVPRGSGTTNTVAAYNLTWKSTNFKTILEWEPKPVNQVYTVQISTKSGDWKSKCFYTTDTECDLTDEIVKVKQTYLARVFSYPAGNVESTGSAGEPLYENSPEFTPYLETNLGQPTIQSFEQVGTKVNVTVEDRTLVRRNNTFLSLRDVFGKDLIYTLYYWKSSSSGKKTAKTNTNEFLIDVDKGENYCFSVQAVIPSRTVNRKSTDSPVECMGQEKGEFREC
[11]
  concentration at which plasma coagulated in 50 seconds: 3 nM

B4: H6-tTF220-cys-C′: tTF219 with Ile-Cys after amino acid 219, (His)6 (protein)
chain: HHHHHHAMALVPRGSGTTNTVAAYNLTWKSTNFKTILEWEPKPVNQVYTVQISTKSGDWKSKCFYTTDTECDLTDEIVKDVKQTYLARVFSYPAGNVESTGSAGEPLYENSPEFTPYLETNLGQPTIQSFEQVGTKVNVTVEDERTLVRRNNTFLSLRDVFGKDLIYTLYYWKSSSSGKKTAKTNTNEFLIDVDKGENYCFSVQAVIPSRTVNRKSTDSPVECMGQEKGEFRE
[11]
  concentration at which plasma coagulated in 50 seconds: 0.5 nM

B5: tTF220-cys-C′: H6-tTF220-cys-C′ without the (His)6 tag (protein)
chain: GSGTTNTVAAYNLTWKSTNFKTILEWEPKPVNQVYTVQISTKSGDWKSKCFYTTDTECDLTDEIVKDVKQTYLARVFSYPAGNVESTGSAGEPLYENSPEFTPYLETNLGQPTIQSFEQVGTKVNVTVEDERTLVRRNNTFLSLRDVFGKDLIYTLYYWKSSSSGKKTAKTNTNEFLIDVDKGENYCFSVQAVIPSRTVNRKSTDSPVECMGQEKGEFREIC
[11]
  concentration at which plasma coagulated in 50 seconds: 0.5 nM

B6: tTF221-cys-C′: H6-tTF221-cys-C′ without the (His)6 tag (protein)
chain: GSGTTNTVAAYNLTWKSTNFKTILEWEPKPVNQVYTVQISTKSGDWKSKCFYTTDTECDLTDEIVKDVKQTYLARVFSYPAGNVESTGSAGEPLYENSPEFTPYLETNLGQPTIQSFEQVGTKVNVTVEDERTLVRRNNTFLSLRDVFGKDLIYTLYYWKSSSSGKKTAKTNTNEFLIDVDKGENYCFSVQAVIPSRTVNRKSTDSPVECMGQEKGEFREIFC
[11]
  concentration at which plasma coagulated in 50 seconds: 0.5 nM

B7: H6-tTF221-cys-C′ dimer: chemically conjugated disulfide dimer of H6-tTF221-cys-C′ (protein)
chain: B4 chain
[11]
  concentration at which plasma coagulated in 50 seconds: 4 nM
  coagulation inducing activity lower than reference: 4 fold

B8: IgG-H6-N′-cys-tTF219: one molecule of IgG linked via SMPT to one or two molecules of tTF (conjugate)
chain: HHHHHHAMALVPRGSCGTTNTVAAYNLTWKSTNFKTILEWEPKPVNQVYTVQISTKSGDWKSKCFYTTDTECDLTDEIVKDVKQTYLARVFSYPAGNVESTGSAGEPLYENSPEFTPYLETNLGQPTIQSFEQVGTKVNVTVEDERTLVRRNNTFLSLRDVFGKDLIYTLYYWKSSSSGKKTAKTNTNEFLIDVDKGENYCFSVQAVIPSRTVNRKSTDSPVECMGQEKGEFRE
modifications: left off: large carriers
[11]
  concentration at which plasma coagulated in 50 seconds: 5 nM
  coagulation inducing activity lower than reference: 5 fold
[12]
  less active than H6-N′-cys-tTF219 at inducing Xa formation: 2 fold

B9: Fab′-H6-N′-cys-tTF219: Fab′ fragment disulfide-linked to H6-N′-cys-tTF219 (conjugate)
chain: B8 chain
modifications: left off: another chain or arm of the molecule; large carriers
[12]
  activity at inducing Xa formation relative to H6-N′-cys-tTF219: as active as H6-N′-cys-tTF219 itself
